The record followed here is the RNAGym collection of RNA variant scans (doi:10.1073/pnas.2313332121).

First the molecules themselves.
B1: TPR t1 (parent)
chain: GACCAAUCUGCCCUCAGAGCUCGAGAACAUCUUCGGAUGCAGAGGAGGCAGGCUUCGGUGGCGCGAUAGCGCCAACGUCCUCAACCUCCAAUGCAUCCCACCACAUGAUGAUGCCUGAAGAGCCUUGGUUUUUUG

Variants of B1 are the subject of this data set. The experiment in a line: polymerase ribozyme fitness, log enrichment relative to wild type (log ratio); higher = more active; in vitro selection for triplet polymerase activity. The essentials:
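After PCR construction and transcription, each subunit's mutant library from a heterodimeric triplet polymerase ribozyme was annealed with a biotinylated primer, the partner subunit and triplets. Incubation was frozen, at −7 °C, and extended constructs were gel-excised, bound to streptavidin beads and amplified by RT-PCR, in one selection round done in triplicate. Fitness is the logarithm of a genotype's enrichment divided by that of the wild type, from inverse-variance-weighted replicate averages of Illumina-sequenced inputs and outputs. The base of the logarithm is 2, and genotypes needed ≥10 input reads and ≥1 read per output.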
Consider A46U U54G G69U U78C G117U, for which the “polymerase ribozyme fitness (log ratio)” value was -4.42. The value for G47U C72G was -2.79; that for G47U C72A was -0.885; that for G47C C82U C114A was -2.65.

For the variant A46U C73G A74G U96A, the “polymerase ribozyme fitness (log ratio)” value was -4.63.

Consider G47A U55G C70A C82U, for which the “polymerase ribozyme fitness (log ratio)” value was -1.41. The figure for G47A U96A C98G is -6.21; for G47U C53A A103C U112A G122A it is -6.51.

Turning to G47C C70A, the “polymerase ribozyme fitness (log ratio)” value was -5.04. The figure for G47C C85G is -2.21; for G47C G61U U130A it is -2.36. The value for G47C U116C was -2.31; that for A46U G77A A95G was -1.31.

Turning to G47C C62U, the “polymerase ribozyme fitness (log ratio)” value was -1.21. The figure for G47A C49A G60C G128C is -4.7. The value for G47C U81G G93A C101U was -5.71. The value for A46U U78C was -1.07; that for G47A G48U was -1.13. Regarding G47A G48A, the “polymerase ribozyme fitness (log ratio)” value was -1.62. The value for G47A G48A C53G G69U U132A was -0.097; that for G47U G71C C104A was -4.32; that for G47U G61A U131A was -0.875. For G47A C64U C98U, the “polymerase ribozyme fitness (log ratio)” value is -2.79. The value for A46U U59C U109A was -5.97. The figure for G47C C98U C124G is -0.238; for A46U C82G U87G it is -1.06. For G47U G63A A111G G120A, the “polymerase ribozyme fitness (log ratio)” value is -3.58. The figure for G47C C114U is -3.1.

Regarding A46U G47A C49U G61C C72U C85G, the “polymerase ribozyme fitness (log ratio)” value was -2.44. In the case of G47U C73U, the “polymerase ribozyme fitness (log ratio)” value was -1.42. The value for G47A G69C C73U U106A was -2.08; that for G47U C64A A121U was -4.82. The figure for A46U C64U is -2.1; for G47A A111U it is -4.17. The figure for G47A C73G U125A G128A is -3.1; for G47U C85G A111C it is -2.87. With G47C U112A, the “polymerase ribozyme fitness (log ratio)” value was -0.857.

As for A46U U78C C124A, the “polymerase ribozyme fitness (log ratio)” value was found to be 0.325. The value for G47C G110U was -2.81; that for G47C G110C was -6.05. The value for G47C G110A was -3.26. The figure for G47A A50U G61U is -0.935; for G47C G52C C73U G120U C123A it is -2.99; for G47C G93A C124A G127U G135U it is -2.23. With G47A U92C G127A, the “polymerase ribozyme fitness (log ratio)” value is -5.01. The value for A46U C94G was -2.36; that for A46U U132A was -1.18.

As for G47C U81G, the “polymerase ribozyme fitness (log ratio)” value was -3.84. The value for G47U G57A G69U was -1.68; that for G47A C86A was -0.754; that for A46U G71A C72G A119G was -1.69.

As for G47A A50G G113A, the “polymerase ribozyme fitness (log ratio)” value is -2.34.

As for A46U C72G A83G G117A U133G, the “polymerase ribozyme fitness (log ratio)” value is -3.93. Turning to G47A C82G, the “polymerase ribozyme fitness (log ratio)” value was -1.3.

Consider G47U C86G, for which the “polymerase ribozyme fitness (log ratio)” value is -0.954.

On to G47U C62U G71U C82A A95U, for which the “polymerase ribozyme fitness (log ratio)” value is -3.36.

Regarding A46U G63A C86U, the “polymerase ribozyme fitness (log ratio)” value was -2.45. The figure for G47A G60A C124G is 0.279; for A46U C82A C86U G110U U131A it is -4.27; for G47U G71U it is -2.23.

With G47U G71C, the “polymerase ribozyme fitness (log ratio)” value is -2.44. The figure for A46U U112G is -1.08; for G47U C88A it is -6.05.

Consider G47U C79G A100G C114G, for which the “polymerase ribozyme fitness (log ratio)” value is -6.83. The value for G47C A90U G128C was -5.03. The value for G47C U78A was -1.42; that for G47U C97A was -5.54. Take G47C A111C A118C: the “polymerase ribozyme fitness (log ratio)” value was -2.36. The figure for G47U C53G U96G C104U A118G C124U is -1.59; for G47A C72A C82G C88A it is -2.25; for G47U G113C it is -2.7. The value for G47U G113U was -3.52.

Consider A46U G63U U96G, for which the “polymerase ribozyme fitness (log ratio)” value is -2.43. The value for G47U C53U C104U was -1.72; that for G47A C104U was -1.4; that for G47U G117A was -3.33. For the variant G47U C102U, the “polymerase ribozyme fitness (log ratio)” value was -3.31. The figure for G47U U54C C76A U92C is -5.69; for G47U C70A it is -4.28; for G47U C70G it is -6.87. The value for A46U C62U C94G U131G was -4.7; that for A46U U112A C123A was -1.26; that for G47A U87A U96A was -2.62. The value for G47C C102U was -2.99; that for A46U U87G G93A C98U was -1.2; that for A46U G52U C104U G110A was -3.02. With G47U C72G G117U, the “polymerase ribozyme fitness (log ratio)” value was -5.24.

For the variant G47A G128A, the “polymerase ribozyme fitness (log ratio)” value is -2.43.

On to G47C C104U, for which the “polymerase ribozyme fitness (log ratio)” value was -1.08. With G47A G77U, the “polymerase ribozyme fitness (log ratio)” value is -0.132. The value for G47U A111C was -3.27.

Consider G47U A111U, for which the “polymerase ribozyme fitness (log ratio)” value is -3.66. The figure for G47U A111G is -0.984; for G47A G71U C104A it is -2.85. The value for A46U G71A G93A G120A G122A was -3.97.

Turning to G47U C124G, the “polymerase ribozyme fitness (log ratio)” value came to 0.196. Take G47U C124A: the “polymerase ribozyme fitness (log ratio)” value is -0.524. For the variant G47U G110C, the “polymerase ribozyme fitness (log ratio)” value is -5.49. The figure for G47C G77U A100U is -1.79. The value for G47U C80A was -5.8. Take G47A C72U A121C U129A: the “polymerase ribozyme fitness (log ratio)” value is 0.0942.

G47A C56U C73U C101U A119G G120U G127A: the “polymerase ribozyme fitness (log ratio)” value was -1.08. The value for G47C A83U was -1.11. The value for G47U G127A was -2.68. The value for G47U G127U was -2.57; that for G47A C62U was -1.85.

For the variant G47A C62A, the “polymerase ribozyme fitness (log ratio)” value was -1.78. The figure for A46U U55A A121G is 0.98; for G47A C62U G113U it is -4.52; for G47U G58A G63U A90G G117C it is -6.13. On to G47U G120C G127C, for which the “polymerase ribozyme fitness (log ratio)” value is -1.64. The value for A46U G48U was -2.29; that for G47U A66C C115U U130A G135A was -5.53; that for G47U A95U C101U C104A A111G C123G was -5.49.

With G47C G93U, the “polymerase ribozyme fitness (log ratio)” value was -3.69. The value for G47A C70A C82G was -2.41. For G47U G69U U131A, the “polymerase ribozyme fitness (log ratio)” value is -1.3. The figure for A46U G71A C73A A91G is -5.51. The figure for G47C G52C A68U U109A is -7.13; for G47C G77U C88A C97U G113C G117C it is -6.98; for G47U C56G G69C C76A A119G U129C it is -7.91. The figure for G47U C73A C85U is -1.61; for G47C C123G U133A it is -0.852; for G47A G71U it is -0.472. Take G47A G71A: the “polymerase ribozyme fitness (log ratio)” value is -2.02.

With G47C C72U C85A C99G G110A, the “polymerase ribozyme fitness (log ratio)” value is -7.27. Consider G47A C49A G60C G93A G113C G127U, for which the “polymerase ribozyme fitness (log ratio)” value was -6.14. The figure for G47U C72G A90G is -1.68; for G47C C86G C124A it is 1. The figure for G47C C56G is -1.79; for A46U C82U G93U G110U it is -3.55. The value for A46U C73A was -1.49; that for G47A G113C G122A was -4.01. As to G47A G60U, the “polymerase ribozyme fitness (log ratio)” value is -0.146. The figure for G47A G60C is -1.05; for G47A G60A it is 1.12. The value for G47U A111G G120A was -2.18; that for G47A G58A G60A C79U was -2.31. The value for A46U U87A was -0.324.

As to G47C C94U, the “polymerase ribozyme fitness (log ratio)” value is -1.71. The value for A46U C88U A103G was -7.61. The figure for G47A A90G A103C G120C is -4.22.

Turning to G47A U55G C85U, the “polymerase ribozyme fitness (log ratio)” value was -1.22. The value for G47U C80U C124A U131G G135A was -0.0494; that for A46U G71A C82G U87G was -1.78; that for G47A U125A was -1.31. The figure for G47C C80U is -3.51; for G47U G58C G63U it is -1.75. Take G47U G51A G61U C79G G93A G113C C114G: the “polymerase ribozyme fitness (log ratio)” value is -6.6. The figure for G47A U59C C79G G120A G128A G135U is -5.95; for G47U G135U it is -2.02. The value for A46U C64U U109A C124A was -5.73; that for G47A C49U G65U G69U C86U G127U was -4.94. The figure for A46U G52U is -2.32. As for G47U C64A C80G U87G C88A U112A, the “polymerase ribozyme fitness (log ratio)” value is -6.27. On to G47A C72U A83U, for which the “polymerase ribozyme fitness (log ratio)” value is -1.18. The figure for G47A C64U is -2.13; for G47A G110C it is -4.91. On to A46U G71A C85G G122A, for which the “polymerase ribozyme fitness (log ratio)” value was -5.93. For G47U G71A C104U, the “polymerase ribozyme fitness (log ratio)” value is -2.44. Take G47A U87A: the “polymerase ribozyme fitness (log ratio)” value is -0.715. Take G47A C94G C101U: the “polymerase ribozyme fitness (log ratio)” value is -2.16. The figure for G47U C79U is -1.85; for G47U G71C U126G it is -3.65. The figure for G47A C70U G77U G93A is -3.29; for G47U G58C C73G C104U A121U it is -5.16; for G47A U81G C82U C86G it is -1.44.
